Test [1] relates to rat model of pulmonary arterial hypertension (PAH), monocrotaline (MCT) induced. Nature of the test: monocrotaline rat model of pulmonary arterial hypertension. In kind it is in vivo, Sprague Dawley rats. On the procedure: The effects of an ActRIIA-mFc fusion protein (ActRIIA-mFc homodimer as described in Example 1), an ALK4-Fc-ActRIIB-Fc heterodimer (as described in Examples 12 and 13), and sildenafil (a phosphodiesterase-5 inhibitor approved for the treatment of PAH) were examined in a rat model of pulmonary arterial hypertension (PAH). In this model, Sprague Dawley rats received a […] injection of monocrotaline (MCT) to induce PAH 24 hours prior to start of therapy.
Rats were separated into different treatment groups (10 mice per group): 1) treatment with MCT (60 mg/kg administered i.p. as a single dose at day 1 of study) and Tris buffered saline (i.p. as 1 ml/kg, every three days) (vehicle treatment group), 2) treatment with an ActRIIA-mFc polypeptide (10 mg/kg administered i.p. every three days) and MCT (60 mg/kg administered i.p. as a single dose at day 1 of study), 3) treatment with an ALK4-Fc:ActRIIB-Fc heterodimer (10 mg/kg administered i.p. every three days) and MCT (60 mg/kg administered i.p. as a single dose at day 1 of study), 4) treatment with sildenafil (30 mg/kg administered orally twice daily) and MCT (60 mg/kg administered i.p. as a single dose at day 1 of study), and 5) control rats (Tris buffered saline administered i.p. as 1 ml/kg, every three days). Rats were treated for 28 days. Body weights were recorded prior to first dose on Day 1 and then weekly throughout the study.
On day 28, rats were anesthetized by an intraperitoneal injection of ketamine/xylazine (80/10 mg/kg). An incision was made in the neck, and a jugular vein was isolated and ligated anteriorly. A fluid-filled pressure catheter was introduced into the right jugular vein to measure pulmonary artery pressure (PAP). Another incision was made in the inguinal region, and femoral artery was isolated and ligated anteriorly. A Millar pressure catheter was introduced into a femoral artery to measure systolic arterial pressure, diastolic pressure, and heart rate. Mean arterial pressure and right PAP were monitored using the Notocord HEM (Croissy sur Seine, Frnace) v3.5 data capture system for approximately 5-10 minutes until stable measurements were obtained. During the measurements, rats were maintained at approximately 37° C. on a heating pad and body temperature was monitored throughout the procedure with a rectal temperature probe. At the conclusion of the procedure, rats were euthanized, and the hearts and lungs were removed. The entire heart was weighed. Next, the atria were removed and the left ventricle with septum (LV+S) was separated from the right ventricle (RV). The ventricles were weighed separately. Hypertrophy was assessed, in part, by calculating RV/LV+S. The lungs were also weighed.
Similar trends were observed on vessel muscularity based on histopathologic scoring. After staining tissue samples to detect αSMA/elastin, 100 pulmonary arterioles, between 10 μm and 50 μm in size, per animal were categorized as non-muscularized, partially muscularized, or completely muscularized. Pulmonary arterioles from vehicle treated rats were determined to be 62.3% completely muscularized, 36.4% partially muscularized, and 1.4% non-muscularized. […] Histopathological scoring of smooth muscle hypertrophy of pulmonary arterioles were also recorded as follows: 0 (normal), 1 (minimal), 2 (mild), 3 (moderate), or 4 (marked).

In test [2] the target is T1, activin A (ActA) (Homo sapiens, UniProt P08476).
T1 sequence (P08476 311-426): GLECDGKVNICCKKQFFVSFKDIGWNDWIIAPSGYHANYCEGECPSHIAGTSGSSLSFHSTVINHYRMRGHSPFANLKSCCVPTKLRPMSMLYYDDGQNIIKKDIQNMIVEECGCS
To be noted: reproduced from WO2006/012627; cited from earlier work.

Test [3] addresses T2, GDF11 (Homo sapiens, UniProt O95390).
T2 sequence (O95390 299-407): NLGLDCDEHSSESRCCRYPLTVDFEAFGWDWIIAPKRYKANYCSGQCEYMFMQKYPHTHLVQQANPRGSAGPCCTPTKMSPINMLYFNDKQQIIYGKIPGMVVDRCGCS
To be noted: reproduced from WO2006/012627; cited from earlier work.

The target in test [4] is T3, GDF8 (Homo sapiens, UniProt O14793).
T3 sequence (O14793 267-375): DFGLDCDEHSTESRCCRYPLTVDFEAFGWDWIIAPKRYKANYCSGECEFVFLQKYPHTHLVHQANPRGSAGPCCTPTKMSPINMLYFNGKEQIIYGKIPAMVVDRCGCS
Briefly: Biacore assay, receptor captured with anti-hFc antibody. Type of test: binding. On the procedure: (§1) Binding of certain ActRIIB-Fc proteins and GDF traps to ligands was tested in a Biacore assay.
(§2) The ActRIIB-Fc variants or wild-type protein were captured onto the system using an anti-hFc antibody. Ligands were injected and flowed over the captured receptor proteins.
Background: In SPR one partner is held on a chip, and binding of the other changes the refractive index at the surface.

Test [5] concerns the target T4, activin A (Homo sapiens, UniProt P08476).
T4 sequence (P08476 311-426): T1 sequence (P08476 311-426)
The description is as above. Type of test: binding. The method, then:
as §1, §2

Substitutions are numbered along the chain they refer to. Names and notes keep the numbering of the source.

For `CCCc1nn(C)c2c(=O)[nH]c(-c3cc(S(=O)(=O)N4CCN(C)CC4)ccc3OCC)nc12` [sildenafil, reference compound], in test [1] (0 normal, 1 minimal, 2 mild, 3 moderate, 4 marked), the “smooth muscle hypertrophy of pulmonary arterioles, average histopathological score” value is given as 3 score. Besides, the “improvement in body weight” value in test [1] (28 days, compared to monocrotaline treated rats, proteins 10 mg/kg i.p. every three days, sildenafil 30 mg/kg orally twice daily) was “did not have any improvement”.

B1: +15tail: soluble ActRIIB-Fc variant labelled +15tail (WO2006/012627) (protein)
chain: SGRGEAETRECIYYNANWELERTNQSGLERCEGEQDKRLHCYASWANSSGTIELVKKGCWLDDFNCYDRQECVATEENPQVYFCCCEGNFCNERFTHLPEAGGPEVTYEPPPTAPT
modifications: left off: a dimerising Fc or GST
For B1, the “ActA binding relative to WT” value in test [2] is reported as “(+++) (~5× increased binding)”. Further, in test [3], the “GDF11 binding relative to WT” value is listed as “(++++) (~10× increased binding)” and the Kd (in general, the free concentration of one partner at which half of the binding sites on the other are occupied at equilibrium, for simple one-to-one binding) was 19 nM.

B2: D54A: soluble ActRIIB-Fc variant D54A (protein)
chain: SGRGEAETRECIYYNANWELERTNQSGLERCEGEQAKRLHCYASWANSSGTIELVKKGCWLDDFNCYDRQECVATEENPQVYFCCCEGNFCNERFTHLPEA
modifications: left off: a dimerising Fc or GST
B2: the “ActA binding relative to WT” value in test [2] is listed as “− (~1/2 WT binding)”.

B3: K74I: soluble ActRIIB-Fc variant K74I (protein)
chain: B2 chain with A36D, K56I
modifications: left off: a dimerising Fc or GST
With B3, the “GDF11 binding relative to WT” value in test [3] is reported as “−− (<1/5 WT binding)”.

B4: K74A: soluble ActRIIB-Fc variant K74A (WO2006/012627 table) (protein)
chain: B2 chain with A36D, K56A
modifications: left off: a dimerising Fc or GST
Regarding B4, the “ActA binding relative to WT” value in test [2] is recorded as “+++++ (~40× increased binding)”. Besides, the “GDF11 binding relative to WT” value in test [3] is “+++++ (~40× increased binding)”.

B5: WT (64A): soluble ActRIIB-Fc, wild type with alanine at position 64 (WO2006/012627) (protein)
chain: B2 chain with A36D
modifications: left off: a dimerising Fc or GST
As to B5, in test [2], the “ActA binding relative to WT” value is listed as “(+) (WT)”. Moreover, in test [3], the “GDF11 binding relative to WT” value is “(+) (WT)”.

B6: F82A: soluble ActRIIB-Fc variant F82A (protein)
chain: B2 chain with A36D, F64A
modifications: left off: a dimerising Fc or GST
As for B6, the “ActA binding relative to WT” value in test [2] is reported as “++ (<2× increased binding)”. Further, the “GDF11 binding relative to WT” value in test [3] was “− (~1/2 WT binding)”.

B7: R40A: soluble ActRIIB-Fc variant R40A (protein)
chain: B2 chain with R22A, A36D
modifications: left off: a dimerising Fc or GST
Regarding B7, the “ActA binding relative to WT” value in test [2] is recorded as “− (~1/2 WT binding)”. Moreover, the “GDF11 binding relative to WT” value in test [3] is “− (~1/2 WT binding)”.

B8: D80I: soluble ActRIIB-Fc variant D80I (protein)
chain: B2 chain with A36D, D62I
modifications: left off: a dimerising Fc or GST
Consider B8, for which, in test [3], the “GDF11 binding relative to WT” value is “−− (<1/5 WT binding)”.

B9: K74F: soluble ActRIIB-Fc variant K74F (protein)
chain: B2 chain with A36D, K56F
modifications: left off: a dimerising Fc or GST
Take B9: in test [3], the “GDF11 binding relative to WT” value is “−− (<1/5 WT binding)”.

B10: K74Y: soluble ActRIIB-Fc variant K74Y (protein)
chain: B2 chain with A36D, K56Y
modifications: left off: a dimerising Fc or GST
Regarding B10, the “GDF11 binding relative to WT” value in test [3] is “−− (<1/5 WT binding)”.

B11: K55A: soluble ActRIIB-Fc variant K55A (protein)
chain: B2 chain with A36D, K37A
modifications: left off: a dimerising Fc or GST
Regarding B11, the “ActA binding relative to WT” value in test [2] is listed as “++ (<2× increased binding)”.

B12: WT (64R): soluble ActRIIB-Fc, wild type with arginine at position 64 (WO2006/012627) (protein)
chain: B2 chain with A36D, A46R
modifications: left off: a dimerising Fc or GST
Regarding B12, the “GDF11 binding relative to WT” value in test [3] is “(+++) (~5× increased binding)”.

B13: L79A: soluble ActRIIB-Fc variant L79A (protein)
chain: B2 chain with A36D, L61A
modifications: left off: a dimerising Fc or GST
Turning to B13, the “ActA binding relative to WT” value in test [2] was “+ (WT)”.

B14: ActRIIB(R64K 20-129)-hFc: ActRIIB(20-129)-hFc variant with R64K mutation (protein)
chain: GRGEAETRECIYYNANWELERTNQSGLERCEGEQDKRLHCYASWKNSSGTIELVKKGCWLDDFNCYDRQECVATEENPQVYFCCCEGNFCNERFTHLPEAGGPEVTYEPPGGGTHTCPPCPAPELLGGPSVFLFPPKPKDTLMISRTPEVTCVVVDVSHEDPEVKFNWYVDGVEVHNAKTKPREEQYNSTYRVVSVLTVLHQDWLNGKEYKCKVSNKALPVPIEKTISKAKGQPREPQVYTLPPSREEMTKNQVSLTCLVKGFYPSDIAVEWESNGQPENNYKTTPPVLDSDGSFFLYSKLTVDKSRWQQGNVFSCSVMHEALHNHYTQKSLSLSPGK
On to B14, for which the “Koff, GDF8” value in test [4] worked out at 0.000209 s⁻¹. Also, in test [5], the “Koff, Activin A” value was found to be 0.000628 s⁻¹ and the “Kon, Activin A” value came out at 7.46e+06 M⁻¹ s⁻¹.

B15: ActRIIB(K74A 20-134)-hFc: ActRIIB(20-134)-hFc variant with K74A mutation (protein)
chain: GRGEAETRECIYYNANWELERTNQSGLERCEGEQDKRLHCYASWRNSSGTIELVAKGCWLDDFNCYDRQECVATEENPQVYFCCCEGNFCNERFTHLPEAGGPEVTYEPPPTAPTGGGTHTCPPCPAPELLGGPSVFLFPPKPKDTLMISRTPEVTCVVVDVSHEDPEVKFNWYVDGVEVHNAKTKPREEQYNSTYRVVSVLTVLHQDWLNGKEYKCKVSNKALPVPIEKTISKAKGQPREPQVYTLPPSREEMTKNQVSLTCLVKGFYPSDIAVEWESNGQPENNYKTTPPVLDSDGSFFLYSKLTVDKSRWQQGNVFSCSVMHEALHNHYTQKSLSLSPGK
In the case of B15, the “Koff, GDF8” value in test [4] amounted to 2.03e-05 s⁻¹.

Source of the values: US10973880B2, “Compositions and methods for treating pulmonary hypertension” (Acceleron Pharma Inc., priority 2016, dated 2021).
